This passage reports infection of Jurkat cells bearing the IL13Rα1 receptor (GFP reporter), transduction (cells expressing the GFP reporter after mixing) and transduction rate results from US20260029399A1.

Experiment in all cases: cell-based or functional assay
In assay [1] the target is T1, IL-13Rα1 receptor on Jurkat cells (UniProt P78552).
T1 sequence: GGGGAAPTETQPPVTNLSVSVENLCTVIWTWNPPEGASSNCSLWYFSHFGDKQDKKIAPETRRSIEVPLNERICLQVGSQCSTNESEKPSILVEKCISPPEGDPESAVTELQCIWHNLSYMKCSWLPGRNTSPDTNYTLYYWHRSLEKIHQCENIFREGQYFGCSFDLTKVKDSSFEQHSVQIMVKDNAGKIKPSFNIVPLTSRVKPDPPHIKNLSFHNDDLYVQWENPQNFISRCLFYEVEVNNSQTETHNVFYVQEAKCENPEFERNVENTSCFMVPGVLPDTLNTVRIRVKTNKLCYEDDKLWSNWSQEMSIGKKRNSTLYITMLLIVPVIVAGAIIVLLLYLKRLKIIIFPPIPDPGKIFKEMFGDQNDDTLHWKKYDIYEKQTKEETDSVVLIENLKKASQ

The target of assay [2] is CMV C7 TCR on C7 TCR-expressing T cells.
Assay [3] has as its target IG4 TCR (variant not stated) on IG4 TCR-expressing T cells.
The target in assay [4] is 868 TCR (Beta Chain-P2A-Alpha Chain) on 868 TCR-expressing T cells.
868 TCR (Beta Chain-P2A-Alpha Chain) on 868 TCR-expressing T cells, sequence (chain, as listed by the source): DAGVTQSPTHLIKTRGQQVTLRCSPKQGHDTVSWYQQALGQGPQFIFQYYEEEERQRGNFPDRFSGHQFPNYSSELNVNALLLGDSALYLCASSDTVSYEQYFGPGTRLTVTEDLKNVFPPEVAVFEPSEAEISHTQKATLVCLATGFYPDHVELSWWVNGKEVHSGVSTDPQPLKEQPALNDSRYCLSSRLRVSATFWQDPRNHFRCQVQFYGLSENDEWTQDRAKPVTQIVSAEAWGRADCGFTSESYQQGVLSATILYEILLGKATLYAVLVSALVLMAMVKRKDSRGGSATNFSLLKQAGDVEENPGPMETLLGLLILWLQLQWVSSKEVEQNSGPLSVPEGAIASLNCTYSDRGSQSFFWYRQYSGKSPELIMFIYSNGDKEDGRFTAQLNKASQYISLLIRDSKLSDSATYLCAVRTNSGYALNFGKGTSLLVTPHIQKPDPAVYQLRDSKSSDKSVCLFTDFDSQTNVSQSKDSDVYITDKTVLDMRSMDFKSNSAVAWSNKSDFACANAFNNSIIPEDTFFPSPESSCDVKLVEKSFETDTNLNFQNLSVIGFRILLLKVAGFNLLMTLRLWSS

CMV C7 TCR on C7 TCR-expressing T cells, sequence (chain, as listed by the source): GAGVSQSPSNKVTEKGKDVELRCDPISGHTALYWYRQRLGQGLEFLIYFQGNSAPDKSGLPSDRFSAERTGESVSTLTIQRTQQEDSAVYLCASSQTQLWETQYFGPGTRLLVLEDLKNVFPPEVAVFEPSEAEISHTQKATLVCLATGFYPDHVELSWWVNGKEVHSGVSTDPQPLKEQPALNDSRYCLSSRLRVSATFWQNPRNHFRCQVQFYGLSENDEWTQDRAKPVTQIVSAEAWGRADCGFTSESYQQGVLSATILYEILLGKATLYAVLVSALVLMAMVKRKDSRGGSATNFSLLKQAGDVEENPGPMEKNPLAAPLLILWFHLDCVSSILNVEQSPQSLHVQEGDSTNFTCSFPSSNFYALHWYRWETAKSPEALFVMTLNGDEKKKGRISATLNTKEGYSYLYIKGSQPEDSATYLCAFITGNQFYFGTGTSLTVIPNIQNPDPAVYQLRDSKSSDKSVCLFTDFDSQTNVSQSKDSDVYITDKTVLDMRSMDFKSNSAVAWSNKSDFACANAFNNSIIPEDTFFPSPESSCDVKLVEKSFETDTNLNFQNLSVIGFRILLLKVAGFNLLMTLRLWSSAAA

In assay [1], “IL-13 - CD8α stalk linker (SEQ ID NO: 4) - PDGFR transmembrane domain, displayed on lentivirus (from UniProt P35225 35-146) (ligand)” returned an infection of Jurkat cells bearing the IL13Rα1 receptor (GFP reporter) of 88.5%. Same read-out and setting: the result for “IL-13 - GAPGAS linker (SEQ ID NO: 5) - PDGFR transmembrane domain, displayed on lentivirus (from UniProt P35225 35-146) (ligand)” reads 1%. Same read-out and setting: the figure for “IL-13 - PDGFR linker (SEQ ID NO: 3) - PDGFR transmembrane domain, displayed on lentivirus (from UniProt P35225 35-146) (ligand)” is 6.1%. In turn, “IL-13 extracellular targeting domain: full-length IL-13 - IgG4 hinge linker - PDGFR transmembrane domain, displayed on lentivirus (from UniProt P35225 35-146) (ligand)” registered a transduction (cells expressing the GFP reporter after mixing) in assay [1] of 85.2%. “disulfide-stabilized CMV NLV pMHC displayed on lentivirus (peptide-MHC)” returned a transduction rate in assay [2] of 21.8%. In assay [3], “disulfide-stabilized NYESO-1 pMHC displayed on lentivirus (peptide-MHC)” returned a transduction rate of 19%. As for “disulfide-stabilized SL9 pMHC displayed on lentivirus (peptide-MHC)”, the transduction rate in assay [4] turned out to be 22.1%.
